Bridge positions count the residues as written; N and C are the ends. * marks the point of attachment. Biotin = O=C1N[C@H]2[C@H](CS[C@H]2CCCCC(=O)*)N1
Experiments:
[1] = biological target: T1, type I equine fibrillar collagen (Collagen Horm, Nycomed) (equine); test: SPR; biotin-collagelin injected on collagen amine-coupled to a CM5 sensorchip
T1 construct: Bought fibrillar preparation; also called type I collagen; fibrillar type I collagen
Procedure: FIG. 2: Interaction of the collagelin with collagen: A Collagen was injected on biotin-collagelin immobilized on a streptavidin coated sensorchip. ˜10 RU collagen were bound onto the collagelin coated surface (dark). The fit is also indicated (grey). Non-specific background signal from a control flow cell coated with an irrelevant peptide was deduced. B Binding of collagelin to immobilized collagen. Increasing quantities of biotin-collagelin (250, 500 μg.mL−1) were injected on a collagen immobilized on a CM5 sensorchip. Sensorgrams and interaction fits obtained with the peptide are shown in black and grey respectively. Non-specific background measured using an irrelevant peptide was deduced.
In other experiments, fibrillar collagen was manually immobilized on a CM5-sensorchip according to the manufacturer's instructions (Biacore, Uppsala, Sweden). The biotinylated peptide (125; 250, 500 and 1000 μg/mL) was injected on immobilized collagen at 25° C. with a flow rate of 20 μL.min−1. In competition experiments, the peptide was pre-incubated with recombinant soluble human GPVI-Fc or the 9O12.2 IgGs before injection onto the surface. The surface plasmon resonance intensity was monitored and data analyzed using BioEval2.0 (Biacore).
Using the streptavidin-coated sensorship onto which biotin-collagelin was immobilized we observed binding of type I collagen to the surface (FIG. 2A). […]

[2] = biological target: T2, bovine fibrinogen (Sigma) (bovine, UniProt P02672 20-615; P02676 1-468; P12799 25-444, limits assumed); test: Solid phase assay: biotin-collagelin on coated fibrinogen, detected with peroxidase-coupled extravidin [panel B]
T2 construct: Bought protein
T2 sequence (looked up) 1: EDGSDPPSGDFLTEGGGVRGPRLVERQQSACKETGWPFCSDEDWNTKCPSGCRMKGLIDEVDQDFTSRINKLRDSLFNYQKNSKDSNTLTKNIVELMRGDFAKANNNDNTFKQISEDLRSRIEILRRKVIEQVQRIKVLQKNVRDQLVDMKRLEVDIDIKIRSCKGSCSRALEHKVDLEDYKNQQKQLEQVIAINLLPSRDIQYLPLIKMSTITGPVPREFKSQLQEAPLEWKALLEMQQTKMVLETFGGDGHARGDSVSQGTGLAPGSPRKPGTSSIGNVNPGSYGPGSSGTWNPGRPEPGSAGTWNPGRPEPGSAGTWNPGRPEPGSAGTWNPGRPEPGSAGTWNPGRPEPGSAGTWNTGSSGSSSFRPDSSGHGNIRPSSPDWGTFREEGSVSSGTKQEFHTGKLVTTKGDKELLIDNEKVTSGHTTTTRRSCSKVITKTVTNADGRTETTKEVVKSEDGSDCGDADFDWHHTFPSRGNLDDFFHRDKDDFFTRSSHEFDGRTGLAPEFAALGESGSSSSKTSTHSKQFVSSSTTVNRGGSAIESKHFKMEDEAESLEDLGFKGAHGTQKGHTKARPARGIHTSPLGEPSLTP
T2 sequence (looked up) 2: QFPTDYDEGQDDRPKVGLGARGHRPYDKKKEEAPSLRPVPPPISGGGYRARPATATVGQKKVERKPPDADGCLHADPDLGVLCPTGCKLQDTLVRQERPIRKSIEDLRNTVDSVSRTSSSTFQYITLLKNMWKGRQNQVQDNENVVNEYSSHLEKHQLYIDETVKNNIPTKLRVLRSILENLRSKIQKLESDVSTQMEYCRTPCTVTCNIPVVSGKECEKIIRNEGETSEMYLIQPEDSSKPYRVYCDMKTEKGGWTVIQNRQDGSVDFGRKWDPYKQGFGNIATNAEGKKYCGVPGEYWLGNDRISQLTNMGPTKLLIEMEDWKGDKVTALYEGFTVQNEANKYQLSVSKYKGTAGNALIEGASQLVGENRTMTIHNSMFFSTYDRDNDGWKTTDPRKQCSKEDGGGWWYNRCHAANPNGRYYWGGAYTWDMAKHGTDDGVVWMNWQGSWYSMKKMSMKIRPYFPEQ
T2 sequence (looked up) 3: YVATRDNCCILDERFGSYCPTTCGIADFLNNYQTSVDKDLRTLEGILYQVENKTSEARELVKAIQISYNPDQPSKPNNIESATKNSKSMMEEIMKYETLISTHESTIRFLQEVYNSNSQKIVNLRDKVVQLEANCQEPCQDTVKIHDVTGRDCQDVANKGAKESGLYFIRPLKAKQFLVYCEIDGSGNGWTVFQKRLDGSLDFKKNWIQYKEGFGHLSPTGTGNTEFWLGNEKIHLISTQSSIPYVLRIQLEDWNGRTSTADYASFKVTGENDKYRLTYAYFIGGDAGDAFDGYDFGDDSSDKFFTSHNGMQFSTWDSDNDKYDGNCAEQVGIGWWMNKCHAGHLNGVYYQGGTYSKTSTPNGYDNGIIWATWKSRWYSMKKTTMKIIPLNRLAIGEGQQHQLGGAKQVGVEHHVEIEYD
Procedure: (§1) FIG. 3: Peptide Interaction with collagen and with different macromolecules: A Binding of collagelin to immobilized collagen in microtitration plates. biotin-collagelin or control peptide were incubated with immobilized fibrillar type I collagen and bound peptide was detected using peroxydase-coupled extravidine. In competition experiments collagelin was mixed with recombinant soluble GPVI (50 and 20 μg.mL−1), 9O12 IgGs (50 and 20 μg.mL−1) or 3J24.2 IgGs (50 μg.mL−1) prior to addition to collagen-coated wells. B: Binding of biotin-collagelin or control peptide (50 μg.mL−1) to immobilized fibrinogen, fibronectin, vitronectin and laminin. Coating of microtitration wells with the different proteins was performed as with collagen. Bound peptides were detected using peroxidase coupled extravidine.
(§2) Proteins [type I equine fibrillar collagen (Horm), bovine fibrinogen (Sigma), human fibronectin (Sigma), rat vitronectin (Sigma), murine laminin (Gibco), and bovine serum albumin (BSA Sigma)] were coated (1 μg/well) on microtitration plates (Immulon 2 Dynex vWR) for 24 hours at 4° C. After saturation of free sites with BSA, biotinylated FLIGPVI peptide (50 μg/ml) was added to the wells for 2 hours. The peptide bound to the wells was then detected using extravidin-HRP and orthophenyldiamine as substrate.

[3] = biological target: T3, soluble recombinant GPVI-Fc fusion protein (human, UniProt Q9HCN6 21-269, limits assumed); test: SPR; biotin-collagelin on a streptavidin sensorchip
T3 construct: also called recombinant soluble GPVI; recombinant soluble human GPVI-Fc; not shown: Fc part
T3 sequence (looked up): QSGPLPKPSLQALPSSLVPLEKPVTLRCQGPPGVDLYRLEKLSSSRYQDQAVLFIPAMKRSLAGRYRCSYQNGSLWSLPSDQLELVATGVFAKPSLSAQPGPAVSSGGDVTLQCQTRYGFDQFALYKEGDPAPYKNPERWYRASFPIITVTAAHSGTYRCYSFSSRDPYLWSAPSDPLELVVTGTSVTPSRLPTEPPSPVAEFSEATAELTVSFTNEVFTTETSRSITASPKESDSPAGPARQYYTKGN

[4] = biological target: T4, human fibronectin (Sigma) (human, UniProt P02751-8 32-2296, limits assumed); test: Solid phase assay: biotin-collagelin on coated fibronectin, detected with peroxidase-coupled extravidin [panel B]
T4 construct: Bought protein
Procedure: as §1, §2

T4 sequence (P02751 other isoform, or with tags, fused parts or gaps limits assumed): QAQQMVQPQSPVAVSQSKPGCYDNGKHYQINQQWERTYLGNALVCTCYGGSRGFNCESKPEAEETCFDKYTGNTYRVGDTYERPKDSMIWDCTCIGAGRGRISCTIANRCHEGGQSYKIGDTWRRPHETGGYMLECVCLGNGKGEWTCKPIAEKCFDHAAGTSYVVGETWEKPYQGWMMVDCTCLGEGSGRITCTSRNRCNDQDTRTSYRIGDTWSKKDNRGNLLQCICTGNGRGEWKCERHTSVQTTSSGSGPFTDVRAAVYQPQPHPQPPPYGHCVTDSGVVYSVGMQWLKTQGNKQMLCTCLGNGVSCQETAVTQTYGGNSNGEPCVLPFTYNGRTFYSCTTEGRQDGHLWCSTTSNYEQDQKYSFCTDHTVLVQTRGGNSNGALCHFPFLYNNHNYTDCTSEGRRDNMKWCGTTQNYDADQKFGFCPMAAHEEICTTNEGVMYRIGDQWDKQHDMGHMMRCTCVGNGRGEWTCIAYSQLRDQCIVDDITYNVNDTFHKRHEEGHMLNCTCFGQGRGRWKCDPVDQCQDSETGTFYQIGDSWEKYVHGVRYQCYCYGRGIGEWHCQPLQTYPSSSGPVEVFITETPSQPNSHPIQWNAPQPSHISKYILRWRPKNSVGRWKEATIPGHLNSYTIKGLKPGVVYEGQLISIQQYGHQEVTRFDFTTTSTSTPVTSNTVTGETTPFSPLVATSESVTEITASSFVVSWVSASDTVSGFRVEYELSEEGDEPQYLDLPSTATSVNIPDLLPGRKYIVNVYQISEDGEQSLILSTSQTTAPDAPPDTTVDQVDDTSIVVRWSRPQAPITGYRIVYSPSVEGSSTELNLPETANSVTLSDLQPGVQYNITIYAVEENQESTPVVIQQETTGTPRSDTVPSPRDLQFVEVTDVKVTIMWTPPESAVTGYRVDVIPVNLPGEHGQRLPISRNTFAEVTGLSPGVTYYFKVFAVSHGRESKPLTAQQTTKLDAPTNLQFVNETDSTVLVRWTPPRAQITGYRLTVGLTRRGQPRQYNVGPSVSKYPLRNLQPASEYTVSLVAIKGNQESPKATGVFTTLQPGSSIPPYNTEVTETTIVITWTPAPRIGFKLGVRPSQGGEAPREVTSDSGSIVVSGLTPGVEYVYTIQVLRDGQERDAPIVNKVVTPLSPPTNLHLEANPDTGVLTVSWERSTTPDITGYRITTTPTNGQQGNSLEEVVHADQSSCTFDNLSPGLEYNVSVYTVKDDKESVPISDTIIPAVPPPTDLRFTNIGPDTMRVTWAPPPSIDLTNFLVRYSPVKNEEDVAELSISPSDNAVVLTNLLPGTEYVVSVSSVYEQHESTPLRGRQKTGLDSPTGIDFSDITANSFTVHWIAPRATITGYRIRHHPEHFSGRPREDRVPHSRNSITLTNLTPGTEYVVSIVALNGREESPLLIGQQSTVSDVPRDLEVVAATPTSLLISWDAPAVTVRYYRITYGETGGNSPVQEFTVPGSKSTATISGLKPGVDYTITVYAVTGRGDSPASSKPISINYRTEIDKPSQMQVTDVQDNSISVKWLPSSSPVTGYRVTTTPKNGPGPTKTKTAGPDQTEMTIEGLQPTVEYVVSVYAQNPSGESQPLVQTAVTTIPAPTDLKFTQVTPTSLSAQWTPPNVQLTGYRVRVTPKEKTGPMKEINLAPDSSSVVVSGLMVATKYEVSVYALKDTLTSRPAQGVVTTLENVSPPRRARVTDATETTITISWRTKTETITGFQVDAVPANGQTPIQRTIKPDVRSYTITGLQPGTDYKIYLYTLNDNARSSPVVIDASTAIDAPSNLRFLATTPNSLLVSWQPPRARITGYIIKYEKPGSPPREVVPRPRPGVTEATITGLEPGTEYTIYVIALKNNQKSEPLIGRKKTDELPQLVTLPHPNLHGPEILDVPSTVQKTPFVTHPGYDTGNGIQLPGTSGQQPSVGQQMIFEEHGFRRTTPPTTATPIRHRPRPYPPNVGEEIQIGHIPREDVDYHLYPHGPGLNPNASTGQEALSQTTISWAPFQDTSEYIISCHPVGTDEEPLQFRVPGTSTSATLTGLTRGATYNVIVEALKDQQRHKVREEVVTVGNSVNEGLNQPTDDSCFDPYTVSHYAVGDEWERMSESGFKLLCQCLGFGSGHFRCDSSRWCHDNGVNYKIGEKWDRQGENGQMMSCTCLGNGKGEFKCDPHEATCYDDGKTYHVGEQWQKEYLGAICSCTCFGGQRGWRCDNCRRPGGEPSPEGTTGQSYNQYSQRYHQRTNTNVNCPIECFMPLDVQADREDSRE

- Kd [1]: 100 nM
- binding result [2]: no binding (tested: 50 µg/mL (legend))
- binding result [3]: no binding (tested: 25 µg/ml)
- binding result [4]: no binding (tested: 50 µg/mL (legend))
B1: biotin-collagelin (peptide)
peptide: Biotin-SGSGCGPRVMHGLHLGDDEGPC-NH2
modifications: disulfide 5-22
SMILES: CSCC[C@@H]1NC(=O)[C@H](C(C)C)NC(=O)[C@H](CCCNC(=N)N)NC(=O)[C@@H]2CCCN2C(=O)CNC(=O)[C@@H](NC(=O)CNC(=O)[C@H](CO)NC(=O)CNC(=O)[C@H](CO)NC(=O)CCCC[C@@H]2SC[C@@H]3NC(=O)N[C@@H]32)CSSC[C@@H](C(N)=O)NC(=O)[C@@H]2CCCN2C(=O)CNC(=O)[C@H](CCC(=O)O)NC(=O)[C@H](CC(=O)O)NC(=O)[C@H](CC(=O)O)NC(=O)CNC(=O)[C@H](CC(C)C)NC(=O)[C@H](Cc2c[nH]cn2)NC(=O)[C@H](CC(C)C)NC(=O)CNC(=O)[C@H](Cc2c[nH]cn2)NC1=O
notes: also called biotinylated collagelin

Source: US20100303724A1 (UNIVERSITE PARIS DIDEROT PARIS 7, published 2010)
